Experimental data published in EP4471049A1 (Zealand Pharma A/S, priority 2023, dated 2024).
*1 amine or outer side, *2 acyl side, *3 side chain or, on linkers, in order; H or OH if unused. Bridges are numbered along the chain shown (N, C = ends). Where no end group is shown, it is not given here. [ ]: non-standard residue; d: D form. 4‑Aminomethyl‑phenylacetyl = 4-aminomethyl-phenylacetyl unit, its amine closes the lactam, O=C(Cc1ccc(CN[*:1])cc1)[*:2]; 2Nal = N[C@@H](Cc1ccc2ccccc2c1)C(=O)O; AEF = NCCOc1ccc(C[C@H](N)C(=O)O)cc1; 3Pal = N[C@@H](Cc1cccnc1)C(=O)O; αMeL = CC(C)C[C@](C)(N)C(=O)O; 3Amb = NCc1cccc(C(=O)O)c1; NMeS = CN[C@@H](CO)C(=O)O; Dab = NCC[C@H](N)C(=O)O; βAla = NCCC(=O)O

Assays:
[1] = Peptide stability in simulated gastric fluid (SGF); type: in vitro ADME; conditions: 37 °C, pH 1.2, porcine pepsin 3.2 g/L, 10 µM
Description: SGF was prepared by dissolving sodium chloride (0.2 g) in 50 mL of water. A volume of 0.7 mL of 10 M HCl was added to adjust the pH of the solution to 1.2 and the volume made up to 100 mL with water. […] SIF was prepared by dissolving monobasic potassium phosphate (0.68 g) in 50 mL of water and adjusting the pH to 6.8 with 1 M NaOH. The volume was subsequently made up to 100 mL with water. 200 mg porcine pancreatin (P1625, Sigma Aldrich) was gently dissolved into 20 mL preheated (37 °C) solution (10 g/L) immediately prior to the incubation.
The incubation was performed at 37 °C with gentle shaking. […] After the last timepoint, the sampling plate was mixed for 10 min on a shaking table and centrifuged 10 min at 2200 g. 70 µL resulting supernatant was diluted with 150 µL water, mixed and centrifugated before analysis by liquid chromatography high resolution mass spectrometry. […] Percent remaining at each timepoint was calculated relative to timepoint zero based on absolute peak areas.
Compounds with a SGF stability (after 4 h) above 70% are considered highly SGF stable. […] Table 3-4: SGF data

[2] = molecular target: T1, Nluc-IL23R fusion protein (human, UniProt Q5VWK5 22-629); test: BRET competition vs TAMRA-labelled peptide, Nluc-IL23R membranes
T1 construct: range 22-629; expressed with a secretion signal in HEK293 cells; used as crude membrane preparation; also called hIL-23R; human IL-23R; not shown: Nanoluc protein from the expression plasmid N1371 (Promega), N-terminal of IL-23R
T1 sequence (looked up): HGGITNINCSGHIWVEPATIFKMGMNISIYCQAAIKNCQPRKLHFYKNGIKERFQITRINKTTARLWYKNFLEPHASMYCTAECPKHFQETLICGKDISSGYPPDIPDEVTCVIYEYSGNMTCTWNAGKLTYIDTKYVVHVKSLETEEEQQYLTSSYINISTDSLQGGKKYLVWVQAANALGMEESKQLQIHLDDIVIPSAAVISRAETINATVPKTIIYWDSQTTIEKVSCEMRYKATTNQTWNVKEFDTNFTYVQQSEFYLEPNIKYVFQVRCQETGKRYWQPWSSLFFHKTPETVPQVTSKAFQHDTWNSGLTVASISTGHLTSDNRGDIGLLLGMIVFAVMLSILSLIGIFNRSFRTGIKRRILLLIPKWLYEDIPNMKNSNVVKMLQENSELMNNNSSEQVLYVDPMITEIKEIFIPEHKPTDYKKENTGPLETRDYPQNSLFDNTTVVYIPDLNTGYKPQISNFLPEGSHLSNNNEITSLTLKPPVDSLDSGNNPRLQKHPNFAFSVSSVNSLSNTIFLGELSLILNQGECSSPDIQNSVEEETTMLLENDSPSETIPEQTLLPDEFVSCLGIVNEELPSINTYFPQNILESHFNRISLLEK

[3] = molecular target: T2, human IL-23R endogenously expressed on DB cells (human, UniProt Q5VWK5 24-629); test: cell-based or functional assay
T2 sequence (looked up): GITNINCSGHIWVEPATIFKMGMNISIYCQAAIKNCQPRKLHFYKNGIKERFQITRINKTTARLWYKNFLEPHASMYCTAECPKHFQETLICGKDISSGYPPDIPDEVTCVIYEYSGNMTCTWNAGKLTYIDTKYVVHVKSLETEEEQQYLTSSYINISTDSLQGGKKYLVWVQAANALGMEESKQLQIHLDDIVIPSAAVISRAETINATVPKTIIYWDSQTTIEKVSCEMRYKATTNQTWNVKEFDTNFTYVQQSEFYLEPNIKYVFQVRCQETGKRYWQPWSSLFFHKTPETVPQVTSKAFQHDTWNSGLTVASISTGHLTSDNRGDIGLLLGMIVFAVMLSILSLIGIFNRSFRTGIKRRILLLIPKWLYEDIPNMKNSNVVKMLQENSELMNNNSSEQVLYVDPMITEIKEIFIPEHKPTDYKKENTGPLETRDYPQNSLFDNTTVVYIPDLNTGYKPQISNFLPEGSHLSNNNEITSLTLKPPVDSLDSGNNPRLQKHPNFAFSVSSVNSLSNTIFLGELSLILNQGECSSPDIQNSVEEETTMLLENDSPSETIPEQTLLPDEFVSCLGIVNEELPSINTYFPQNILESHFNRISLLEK

CC(=O)N[C@@H](CC(=O)O)C(=O)N[C@H]1CCC(=O)NCCCC[C@@H](C(=O)N[C@@H](CCCNC(=N)N)C(N)=O)NC(=O)[C@H](CC(C)C)NC(=O)[C@H](Cc2ccc3ccccc3c2)NC(=O)[C@H](Cc2c[nH]c3ccccc23)NC(=O)[C@@H]2CSCC(=O)CSC[C@H](NC(=O)[C@H](CO)NC1=O)C(=O)N[C@@H](Cc1c[nH]c3ccccc13)C(=O)N[C@@H](CCC(N)=O)C(=O)N2 [Ref 17, [Ac]-DE(1c)SC(2a)WQC(2a)W[2-Nal]LK(1c)R-[NH2], reference compound]
SGF (% remaining 1 h) ([1]; 1 h): 0% | SGF (% remaining 4 h) ([1]; 4 h): 0%

[4‑Aminomethyl‑phenylacetyl][NMeS]EWQ[Dab][AEF][2Nal][αMeL]E[Dab][3Pal]-NHMe (lactam (positions not given here); lactam 3-6; not fully specified (bridges)) [Compound 18]
% displacement (hIL-23R binding) [2]: 96%

B1: Ref 155 (peptide)
peptide: Ac-KTCWQC[AEF][2Nal][αMeL]E[Dab][3Pal]-NH2
modifications: lactam 1-10; bridge 3-6; not fully specified (bridges); printed as [Ac]-K(1c)TC(2a)WQC(2a)[Y(2-aminoethoxy)][2-Nal][2-Me-Leu]E(1c)[Dab][3-(3-Pyridyl)-Ala]-[NH2]
% displacement (hIL-23R binding) [2]: 97% | hIL-23 (pSTAT3) antagonist % inhibition [3]: 100% | hIL-23 (pSTAT3) antagonist IC50 [3]: 31 pM

B2: Ref 141 (peptide)
peptide: [4‑Aminomethyl‑phenylacetyl][NMeS]CWQC[AEF][2Nal][αMeL]E[Dab]-NH2
modifications: lactam N-10; bridge 3-6; not fully specified (bridges); printed as [4-Aminomethyl-phenylacetyl](1c)*[N-Me-Ser]C(2a)WQC(2a)[Y(2-aminoethoxy)][2-Nal][2-Me-Leu]E(1c)[Dab]-[NH2]
% displacement (hIL-23R binding) [2]: 102%

B3: Compound 23 (peptide)
peptide: [4‑Aminomethyl‑phenylacetyl]SEWF[Dab][AEF][2Nal][αMeL]E[Dab][3Pal]-NHMe
modifications: lactam N-10, 3-6
SMILES: CNC(=O)[C@H](Cc1cccnc1)NC(=O)[C@H](CCN)NC(=O)[C@@H]1CCC(=O)NCc2ccc(cc2)CC(=O)N[C@@H](CO)C(=O)N[C@H]2CCC(=O)NCC[C@H](NC(=O)[C@H](Cc3ccccc3)NC(=O)[C@H](Cc3c[nH]c4ccccc34)NC2=O)C(=O)N[C@@H](Cc2ccc(OCCN)cc2)C(=O)N[C@@H](Cc2ccc3ccccc3c2)C(=O)N[C@@](C)(CC(C)C)C(=O)N1
% displacement (hIL-23R binding) [2]: 97% | IC50 [2]: 0.12 nM | hIL-23 (pSTAT3) antagonist % inhibition [3]: 99% | hIL-23 (pSTAT3) antagonist IC50 [3]: 5.2 nM

B4: Ref 82 (peptide)
peptide: [4‑Aminomethyl‑phenylacetyl]SCWQC[AEF][2Nal][αMeL]E[Dab]-NH2
modifications: lactam N-10; bridge 3-6; not fully specified (bridges); printed as [4-Aminomethyl-phenylacetyl](1c)*SC(2a)WQC(2a)[Y(2-aminoethoxy)][2-Nal][2-Me-Leu]E(1c)[Dab]-[NH2]
% displacement (hIL-23R binding) [2]: 103% | hIL-23 (pSTAT3) antagonist % inhibition [3]: 97% | hIL-23 (pSTAT3) antagonist IC50 [3]: 11 nM

[βAla][3Pal]SCWQC[AEF][2Nal][αMeL]E[dR]-NH2 (lactam N-11; linker 4-7 via 1,3‑dithio‑propan‑2‑one) [Compound 1]
% displacement (hIL-23R binding) [2]: 105%

[4‑Aminomethyl‑phenylacetyl]SEWQ[Dab][AEF][2Nal][αMeL]E[Dab]H[3Pal]-NH2 (lactam (positions not given here); lactam 3-6; not fully specified (bridges)) [Compound 12]
% displacement (hIL-23R binding) [2]: 104% | hIL-23 (pSTAT3) antagonist % inhibition [3]: 100% | hIL-23 (pSTAT3) antagonist IC50 [3]: 3.5 nM

B5: Ref 78 (peptide)
peptide: [3Amb]SCWQC[AEF][2Nal][αMeL]ER[3Pal]-NH2
modifications: lactam N-10; bridge 3-6; not fully specified (bridges); printed as [(3-Aminomethyl)benzoyl](1c)*SC(2a)WQC(2a)[Y(2-aminoethoxy)][2-Nal][2-Me-Leu]E(1c)R[3-(3-Pyridyl)-Ala]-[NH2]
% displacement (hIL-23R binding) [2]: 100% | hIL-23 (pSTAT3) antagonist % inhibition [3]: 100% | hIL-23 (pSTAT3) antagonist IC50 [3]: 0.13 nM

[3Pal][βAla]SCWQC[AEF][2Nal][αMeL]E[dR]-NH2 (lactam N-11; linker 4-7 via 1,3‑dithio‑propan‑2‑one) [Compound 2]
% displacement (hIL-23R binding) [2]: 103%

B6: Compound 21 (peptide)
peptide: [4‑Aminomethyl‑phenylacetyl]FEWQ[Dab][AEF][2Nal][αMeL]E[Dab][3Pal]-NHMe
modifications: lactam N-10, 3-6
SMILES: CNC(=O)[C@H](Cc1cccnc1)NC(=O)[C@H](CCN)NC(=O)[C@@H]1CCC(=O)NCc2ccc(cc2)CC(=O)N[C@@H](Cc2ccccc2)C(=O)N[C@H]2CCC(=O)NCC[C@H](NC(=O)[C@H](CCC(N)=O)NC(=O)[C@H](Cc3c[nH]c4ccccc34)NC2=O)C(=O)N[C@@H](Cc2ccc(OCCN)cc2)C(=O)N[C@@H](Cc2ccc3ccccc3c2)C(=O)N[C@@](C)(CC(C)C)C(=O)N1
% displacement (hIL-23R binding) [2]: 95% | hIL-23 (pSTAT3) antagonist % inhibition [3]: 102% | hIL-23 (pSTAT3) antagonist IC50 [3]: 63 pM

B7: Ref 120 (peptide)
peptide: [4‑Aminomethyl‑phenylacetyl]SCWQC[AEF][2Nal][αMeL]E[Dab][3Pal]-NH2
modifications: lactam N-10; bridge 3-6; not fully specified (bridges); printed as [4-Aminomethyl-phenylacetyl](1c)*SC(2a)WQC(2a)[Y(2-aminoethoxy)][2-Nal][2-Me-Leu]E(1c)[Dab][3-(3-Pyridyl)-Ala]-[NH2]
% displacement (hIL-23R binding) [2]: 94% | hIL-23 (pSTAT3) antagonist % inhibition [3]: 101% | hIL-23 (pSTAT3) antagonist IC50 [3]: 54 pM

B8: Compound 22 (peptide)
peptide: [4‑Aminomethyl‑phenylacetyl]SEWA[Dab][AEF][2Nal][αMeL]E[Dab][3Pal]-NHMe
modifications: lactam N-10, 3-6
SMILES: CNC(=O)[C@H](Cc1cccnc1)NC(=O)[C@H](CCN)NC(=O)[C@@H]1CCC(=O)NCc2ccc(cc2)CC(=O)N[C@@H](CO)C(=O)N[C@H]2CCC(=O)NCC[C@H](NC(=O)[C@H](C)NC(=O)[C@H](Cc3c[nH]c4ccccc34)NC2=O)C(=O)N[C@@H](Cc2ccc(OCCN)cc2)C(=O)N[C@@H](Cc2ccc3ccccc3c2)C(=O)N[C@@](C)(CC(C)C)C(=O)N1
% displacement (hIL-23R binding) [2]: 96% | IC50 [2]: 0.035 nM | hIL-23 (pSTAT3) antagonist % inhibition [3]: 101% | hIL-23 (pSTAT3) antagonist IC50 [3]: 3.4 nM
